The source of these data is the DeepSol protein solubility set.

A short description of this data set: soluble on expression in E. coli; label from the status in PepcDB or PDB records.
Regarding “MGSDKIHHHHHHMTIYSPDTINFNGVNGDRYWFDEPFPYTGVGDIDERLSGFPVAVFLPHHRPRQETPLVIGLQGMCAPYGWNAFIVPTLTEMGIAVALFDPPLSGERSLVRTSTTLVQNEIKPLIDRGIPFDTALFLSIFRTTARDISKIREFCGDRYGLTDSRLALFGVSMGVLLSAYAFTANSLGDRLLGTIGHADLPSFAKSWGRPFLPDLAASPLGGLAESLLQRLQPDLAPLFQLLRLTKNLKYQDEYAWDCNPMNYIQQVDSHRRVRFLVGANDSIVKIKDARACAQKFPDGDCYVVPGMGHGTRQSGVSFVDHVRYFLATQLGDWCG”, the “soluble on expression in E. coli” value was “not soluble”. To “MGSDKIHHHHHHVTITNPLPIDRNGEMVEISMAEITGKLQLPDTAQVIVLDENGLEVPYQITYDDMLIFPASVKGDASAVYTIAEGTPQPVDVVACGRQYPERLDDVAWENDRAAYRAYGPALQEKGERAFGYDIWTKSVSEPVVEDRYDGDLNRGISYHVDHGNGMDCYAVGPTLGGGTAALFPDSTIVYPYCYKDCEILDNGPLRFTAKLVYNPLVVKGDSSVIETRIISLDKGSQLNKTVVSFDNLQEITPVVTGIVLHKQNPMGYSFDADAGYIAYADSTENAANNNGVIYIGAVFPATVKGAFAQVFSEKERKERGDALGHVLAVNDYEPGAEYIYYWGSGWSKYGFEADTDWNKYLEEYARKIRNPLAVAIK” belongs “not soluble”.

With “MCLARSISRRENYKPLKSKVMTKRNVGRPPKNERADHCCMVRFTDTEFARFLTLFEQSGLQNRAAFIKARVFNETFRVIKVDRSLLDYYQKLTTLYGQFRSVGVNYNQTVVALKSNFTEKKAFAMLTKLEKLTLELAIIGGEIVQLTRKFQEKWQHRQ”, the “soluble on expression in E. coli” value is listed as “not soluble”. Then “MGSDKIHHHHHHMSIEFSRWPNNYMMSYQVTKALGLASLGATDVTEIYEACKKIDPNDKETWHREWLITAETLERHGKEAEAVGNWYTARNCYIRACNYNRIAEYTVMDDDNEKIRIFRKVNELFEAAGKYFDVKPEKIQVDYEDVKLDGYFFSPSWIKGPKPTILALNGGDEWSIENYFWLGPAFISCGYNFMVYDQPGTGLSMYEKGKGRRADSEAFHSRAIDFLLTRPEVDPNKIIVHGESFAAYDSLRFASFDHRIAAVISDGGTHAFDWEAMLKWMPPSLAGHGMRILGAKSLDDFAENPRFAYNLEGVLHQIECPLLVMHGAEEILVQPNPLTQALKNYEQAGSKNKTFFPIEDRRIGGLEHCQVDNINVLHEVVLNWLCSIGLGPFAPRPSDC”, with “not soluble”. Then “MSRESTVREWRTRVPRYRLLGGRCSDCGRSFYPPAKACPYCGSRNVAETELPRVGRLEAYTVLYSVESGARDRSPVVIGLVDLGVAKVVSEIVDVSDPESLERGVQVEAVFRRIYEDGDEGVIVYGVKFRPKA”, with “not soluble”; and “SGDFTWSSNLVFSWNKNEIKDLYGDGQNDLGNRWFLGHPIGVIYDYTMVGIWQEDEIARGDHLNWDPIAEAGDVKLADISGPDGVPDGKIDDNDRTIKGQTTPKWIGGLTNTFTYKDFTLSIFIQTTQGLKKNNSLIGMAGDEMGRRNTTTEIGYWTPENKSNEWRSLRKNSNKHGYGFPCDASYTRIKDITLSYTFPQRMIQKMGIGGLQLYVSGRNLFTFTDWVGWDPEARQVARGNSSWDSTRGETVYDSSNYPMTKSCVFGVNLTF”, with “not soluble”; and “MCFIMSKRNTQLRRHTIVKLVNEQGEVSVEALSSQFETSEVTIRKDLASLEKNGQLLRRYGGAIALPKEVMHDELNEKVSVRKISLAKAAAKLIRDHNRIVIDSGSTTAALIQQLNDKRGLVVMTNSLHVANALNELENEPTLLMTGGTWDTHSESFQGKVAESVLRSYDFDQLFIGADGIDLDRGTTTFNELVGLSKVMAEVSREVIVMIESDKVGRKIPNLELSWDNIDVLVTDHELSDEFAKQIESHQVRVIRATVK”, with “not soluble”. Then “MGSDKIHHHHHHVGEHGNVNLRAENCRLKGKDIIVLYRDELDLSSEQWLELLQDNTVFKDEDILLVLELYKCNNCREYASVLADSLGVASHSVLNLQIGRLGKRIIARYPDIKYPTREDGVVRYWHIPFWGEDGEKKGHYYWQLRPELKEALKMLKSNQKRKIFALHGEVQLAQEVDEEQTEKLYEGAKIQIVVNAYERNIKARQICIDKYGYKCSICDFDFEEFYGMLGSDYIEVHHLIPLHEINKEYRVDPINDLRPVCPNCHAMLHRAGISYEELKNKIESEC”, with “not soluble”. As for “MAPGTAELEIDETLHLLRMVMQREFIHYLETLPGTKELFIDKCLLRPLDMIATSSDMKRHGVKRIMHFDLQKSPQVWNIEIDQRVFFLRPNVENARKIVEYVEESSENRSICVIWCNRQLEECDLAFESSGVIGHITQLSLNMCLLPLESDLFSLQHVESAQPDLFSVANMFVALQNLYGVIPTVYGLGSESKNLWNLVHALCSSNELRARPDQPISHLFLFDRQLDPVPVLLTGASYEGLLHEFFTIDCGKLAFPVDLRKQVQTGPLDFDWIEINPEEDKEAHQQNRGDTVKLDNCEDIFASIRNKHVTAALEFLHSKAKSIQKSIEKSSMIDDVADYRNFVEKDLRALKKDHKHCELHINACEMMMNKVKMEDYRTMFKLEHEMLLGTVTHEEYFDFVFERVPMRSCRDVVLSMMSLASLKLDGVPDDTYNEFVEMYLQKYGYEHMFELQNLRNSRVIYARRHIAHDRTISERARTWETLARKFRIVKGNEPMDMSNPSDMSYVFGARISPLLCKIVEDTIDHGWNQAEYERIIGKDKVLVEENTYIAADRRPDNRTRKAIMVFVNGGITYWEVAALRLLAIQKNFRILICTTHVIKKREYLEVRAKDASSVFGS”, the “soluble on expression in E. coli” value is “not soluble”.

As to “APAEPAAPKSGEAETPPKHPGVLKVEAILEKVQGLEQAVDSFEGKKTDKKYLMIEEYLTKELLALDSVDPEGRADVRQARRDGVRKVQTILEKLEQKA”, the “soluble on expression in E. coli” value was “soluble”. For “SPNSQYLKTRILDIYTPEQRAGIEKSEDWRQFSRRMDTHFPKLMNELDSVYGNNEALLPMLEMLLAQAWQSYSQRNSSLKDIDIARENNPDWILSNKQVGGVCYVDLFAGDLKGLKDKIPYFQELGLTYLYLMPLFKCPEGKSDGGYAVSSYRDVNPALGTIGDLREVIAALHEAGISAVVDFIFNHTSNEHEWAQRCAAGDPLFDNFYYIFPDRRMPDQYDRTLREIFPDQHPGGFSQLEDGRWVWTTFNSFQWDLNYSNPWVFRAMAGEMLFLANLGVDILRMDAVAFIWKQMGTSCENLPQAHALIRAFNAVMRIAAPAVFFKSQAIVHPDQVVQYIGQDECQIGYNPLQMALLWNTLATREVNLLHQALTYRHNLPEHTAWVNYVRSHDDIGWTFADEDAAYLGISGYDHRQFLNRFFVNRFDGSFARGVPFQYNPSTGDCRVSGTAAALVGLAQDDPHAVDRIKLLYSIALSTGGLPLIYLGDEVGTLNDDDWSQDSNKSDDSRWAHRPRYNEALYAQRNDPSTAAGQIYQGLRHMIAVRQSNPRFDGGRLVTFNTNNKHIIGYIRNNALLAFGNFSEYPQTVTAHTLQAMPFKAHDLIGGKTVSLNQDLTLQPYQVMWLEIA”, the “soluble on expression in E. coli” value is listed as “soluble”. To “MGSDKIHHHHHHMTEGMNAGLAMPPAALETSGGANQVGVRAYNERLVMSLVRRHGSLSKAEIARRSGLSAQTVTVIMRVLEREKLLVRGEPVRGRVGQPSVPMRLNPDAVYSFGVKIGRRSANLVLMDFVGTIRHEVRRTYPYPMPGLLLDFIVGGISDIEGRLSVAERARIAGVGIAAPFELWSWAEETGAPSEEMDVWRETDLKADVAARIGYPVFIQNDATSACAAELVFGVGPHYPDFVYFFLGSFVGGGIVLNSSLFSGRTGTAGAVGPLPVQRRDGKTVQLLKIASIFVLENLLRDYGQDSQSLWYSPSDWVDYGEPLEIWIRDTAAALAQAIVAAASIIDFSAAVIDGGFPQWVRQRLVVAIQEAARDLDLQGVLMPEIVEGAVGHQARSVGGASLPLFSRYLLDQNVLFKELL” belongs “not soluble”. To “MTSPFKVVAVSGGTYRPSRTLVLTQALIAELGQSLPIDSRVIELTDIAAPLGATLARNQAPAELQAVLDEIESADLLLVASPVYRGSYPGLLKHLFDLIDLNALIDTPVLLAATGGTERHALVLDHQLRPLFSFFQAITLPIGVYASEADFDNYRIVSEPLKARIRLAAERAAPLFGGRSELLKIALEHHHHHH” belongs “not soluble”; to “METDNVLKRILEIEHGFVHILDAAKEILSSSSEERSFAIASEFFDHEAYQPRMLATAILGHLAGTNSEALLFLKDRVSLDMNWRVQEMLAKAFDTFCKEQGYEKSLPVIREWLDSDNANVVRAVTEGLRIWTSRPFFKENPCLAIEWLSRHRGHESEYVRKSVGNALKDISKKHKESVAEELKKWDLSDPLVLFTYKHASKHPDKDIKKQ”, “not soluble”; to “MLVLPKGVRHMPAYLSRAIQDALVEDVRSIVQQAPLFVPAMPRTGKEMSVRMTNCGPLGWVTDKERGYRYQPTHPLTGEPWPPIPESLLDLWRQVSGYPNPPEACLINFYTADAKMGLHQDRDEADFSAPVVSVSLGDDCLFRVGQTTRDGATKSFRLKSGDVVVLGGEGRLAFHGVDRIYPSTSALLKNGGRINLTLRRVTKPHEECLTSRSLEHHHHHH”, “soluble”.

For “HMVTLYTSPSSTSCRKARAWLEEHEIPFVERNIFSEPLSIDEIKQILRMTEDGTDEIISTRSKVFQKLNVNVESMPLQDLYRLINEHPGLLRRPIIIDEKRLQVGYNEDEIRRFLPRKVRSFQLREAQRLAN”, the “soluble on expression in E. coli” value is “soluble”. Then “MGSDKIHHHHHHMWFAVLSSNEVRRKPVGVRRLGRDLVFWRDSLGKVYALEDFCVHRRARLSAGKVINDRIQCPFHGFEYDGNGRVRLIPALGKNYKVPDRFRVNSYPVYEKNNIIWLWSGEGEPEKEPKFFDDIDEDFAYAEFRELWNVPFPRAVENQLDVMHLPFVHRTTIGRGNRTLVHGPVVKWIDEDSFIFYVFNEVDRGQRVKRPEELSGEESRVYLEFIFPNLWQNHISEGTRVVAFFVPVDRQKTMIYLRFYVKMTGLKPVDSIIARLSMPLNRIILHQDRRVVETQERDIRKDVLVQGDLPIMEFRKRLYKEKKLIDFLFGGGQ”, with “not soluble”; and “DTPEPPLHNFYCSKLLDLVFLLDGSSMLSEAEFEVLKAFVVGMMERLHISQKRIRVAVVEYHDGSRAYLELKARKRPSELRRITSQIKYTGSQVASTSEVLKYTLFQIFGKIDRPEASHITLLLTASQEPPRMARNLVRYVQGLKKKKVIVIPVGIGPHASLKQIRLIEKQAPENKAFLLSGVDELEQRRDEIVSYLCDLAPEAPAPT”, with “soluble”; and “MGSDKIHHHHHHMDLNEIIEKLKDILSEEKEGQKVLDRDVALALHIHPQSFACMKSRQKIPYEEILAFCAKRKISANWLFYNQAPESLIDTTNQYCYIRYFSQVHASAGGGAFNDTEACERIKLDAFWVERLGGEKEIKQIEAIAVTGDSMEPTLEDGDLIFIHRQKRQISKGGIFVIQTPHGIFVKRLQERLDGGVDILSDNSLYPTQTLERDGIEVIGRVVGALKNLE”, with “not soluble”. Then “MPLPPDITFDSLALIKMHSQNMKRILEVTLAKFTVNLSIVTVYRYLTARAYLKKNIEAEFEILKDIYNIVPLLDDIAIKAAQIEANLIKKEITLDMEDIITATTAIYTNSLLVTDDPKRYEPIRRFGLDTMPLDKFIKEVELMVEKELI”, with “soluble”.

On to “SATGTPESQARFGQSVKGLLTEKVTTCGTDVIALTKQVLKGSRSSELLGQAARNMVLQEDAILHSEDSLRKMAIITTHLQYQQEAIQKNVEQSSDLQDQLNHLLK”, for which the “soluble on expression in E. coli” value is on record as “soluble”. In the case of “MGDITNEMIWQAIKELAEQLQQTNGQVQQLSQQVQQTNEQVQQLGQQIQHLNSQVQQLNHQVQQTHEQVGQLAKQVQQTNEQLNQLSQQVADMDKRLTDVANGQNILVEELFENKKEIKRVKTALNMY”, the “soluble on expression in E. coli” value is recorded as “not soluble”.
